Assay results: US20120225824A1

Biological target: MIS type II receptor (MISRII) (human) (UniProt Q16671)
Experiment: cell-based or functional assay

Chain of UniProt Q16671 (Q16671 18-573): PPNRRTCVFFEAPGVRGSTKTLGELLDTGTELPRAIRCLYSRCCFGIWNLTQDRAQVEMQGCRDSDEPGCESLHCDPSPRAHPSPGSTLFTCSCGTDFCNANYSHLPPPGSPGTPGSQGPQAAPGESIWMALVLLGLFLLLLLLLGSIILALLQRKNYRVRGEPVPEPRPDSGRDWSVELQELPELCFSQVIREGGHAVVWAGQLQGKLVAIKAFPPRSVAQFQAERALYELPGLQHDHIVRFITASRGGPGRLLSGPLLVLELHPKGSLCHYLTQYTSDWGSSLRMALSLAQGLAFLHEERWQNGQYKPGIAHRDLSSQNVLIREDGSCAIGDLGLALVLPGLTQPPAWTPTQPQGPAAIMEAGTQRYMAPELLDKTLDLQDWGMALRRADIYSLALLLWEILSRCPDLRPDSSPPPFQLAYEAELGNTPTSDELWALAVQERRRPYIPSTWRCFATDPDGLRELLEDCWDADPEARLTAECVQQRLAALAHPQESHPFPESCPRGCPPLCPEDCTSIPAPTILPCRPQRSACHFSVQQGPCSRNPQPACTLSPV

Substance | decrease in cell proliferation (cultured endometrial cells transiently transfected with an MIS protein expression construct) | decrease in viable cells (cultured endometrial cells, rhMIS 100 ng/mL, 72 hours)
MIS over-expressed from an MIS protein expression construct (ligand) | 8% | –
rhMIS (R&D Systems, Minneapolis, Minn.) (from UniProt P03971 452-560) (ligand) | – | 14%
